Measurements taken from a protein production outcome set (Wang et al. 2014).

Experiment: label from the status in PepcDB records

Row | Sequence | protein production
1 | ARDPAKLKQVAGQPRLREAVIRLMRGTDVIRVKMYALNGITLFSTDASQIGEDESDDDGFRSAAAGTPASELAHNHSIDAFERTLTDRDIISTYVPVHDPAGKIEGVLEIYLDATPFVADSDQQ | failed
2 | MSEQRQDKNLLSEPHKTESDEIEIDLVDIFRKIIAIRRKLYKAIGVGFIIGMIVAVSIPKQYTVKVTLSPEMGSSKGGNGLAGLAASFLGSSATTGEVSDALNASLSSDIVSSTPFLLELLDMKVALSDERTDITLMDYLDRQSSPWWNYVIGLPGMVIGGVKSLFNSDDNDNSLNKVKSGTIELTKEEGIKVNVLKKNISASVDKKTAITSVSVTLQDPKVTAVVADSVVHKLQECIVGYRISKAEEDCIYLEKLYKERQQEYYVAQKKYADYVDTHDNLILQSVRAEQERLQNDMNLAYQVYSQVANQLQVARAKVQEEKPVFAVIEPAVVPQHASSIGLRIYVLLFIFLSVCYTISWNLLGKKIRYILKGSKENQQ | failed
3 | MIELEGVPELVDPVMVAAFEGWNDAGDAASTAVAHLDREWKGEVFAALDAEDYYDFQVNRPTVFMEDGVRKITWPTTRLSVVRVGGDKPRDLVLVRGIEPSMRWRSFCNELLGFAHELGVELVVVLGALLGDTPHTRPVPISGTTSDADLARRMDLEETKYEGPTGIVGILQEACTHAGVPAVSLWAAVPHYVSQPPNPKATLALLNRLEDLIGVRVPLGELPEDARAWQVGVDQLAAEDTEVAEYVQSLEEARDTA | not failed
4 | MVTLLVLRMISAITRKTPVKTLSKRSKTFNETAGGEGGGGAIKLITINVHIRYSFTMITISQYFHLVDELRNCTRKVWSTYPKELIELLRDSMVTH | failed
5 | MFSPEGPTRRELAVQALSSVERGYDLLAPKFDHTPYRTPDRVLDAVARGLEPLGPFAAGLDLCCGTGAGVEVLARVCQRDVTGVDFSAGMLEVARRRTLPPGPEVSWVRADARALPFGPAFDLVVSFGAFGHFLPRELPGLFGQVRSVLRPDGCFAFPVAAPPRPGSPGYWTLLGFDAAMRVRNALWRPPFVMYYRTFRLGAVGRELSRAGFRTDLHALPEFGRRPDGSPRARLVVARRLP | failed
6 | MDLDYGGVPLWINRFLGEPSVLTLKDRIDPGWYRAVNTQSCPLECDCPIQWPTAIYCDHRGLNQLPSGLPFRLQYLFLQGNNITSLGSRAFDNTTYLRWLILDHNELLSEQLDNVLFSSLTRLVNLFINHNNLTKVPAGLPSGLKQLRLAYNHIEKISEGDFQNLDSLTLILLQGNRLKTIEEGDFKGLGALNLLDLSHNFLDTFPKHLPPSVQQLYLSNNSLTGLSENSLHAFSGLRYLRLGHNKLRNERLDPGAFNLTSLVELDLSYNRLTEIPSVPITLQYLYLEVNHIQEFNVSSFCRTVGPTSYSRMKILRLDGNKLEYHKLPPDWVFCLRVLHNIYI | failed
7 | MTFFTNYTNLALIAILLVSGGLLAWPALRRGRGGLSAAEATQLINRRNAVVIDLRAATDFAAGHLPSARQVAAGEIGAKIAQVAKNKSTPVLLVCQNGQQSQKAAREVQAAGYAEVHVLEGGVAAWQQAGMPVVKQGVAK | failed
8 | MSWLIHAGEGRQYQVAPPVSWSQSYAEARMTDIQRLDDQTVERIAAGEVVERPASVVKELVENAIDADASRVDVVVEAGGTDGIRVTDDGIGMDREAVKTAVEEHTTSKIRDIADLEGGVGTLGFRGEALHAIGAVSRLTIRTRPRGGDVGTELVLEGGDVTSVSPAGCPEGTTMAVEDLFYNVPARRKYLKQESTEFAHVNTVVASYALANPDVAVSLTHGDRETFSTTGQGDLRETVMSVYGREVAESMISVGAGSEATGSGDEMDSFPDGPLDGVHGLVSHPETNRAGREYLSTYVNGRYVRAGTVRDAVIDAYGTQIAPDRYPFAVLFLDVPAGDVDVNVHPRKMEVRFADDEGVREQVRTAVEDALLREGLLRSTAPRGRSAPEQTEITPESDGATDSGGERAAPNGRDAIDDATTSGQTDTTATENSAEAPAQEPDTAPTARPDGTQTETGNCESSDTAPSIQSADTKPSSETGRTDGTSGESGTGQTGGSVSGGDSDSERPGASATGQTAAERGERKFTGGQEQARLGDDPEATHESLPSMRILGQLADTYVVAETDDGLVLVDQHAADERVNYERLKAKFEGETTTQALANPVELGLTAREAEVFDRRSDALASLGFHTARTGERSVEVRTLPGVIADAAGPDIVRDVLGAFVAGDDEAAATVEAAADELLGDLACYPSVTGNTSLTEGSVRELLAALDDCENPYACPHGRPTVIHIDRQELEDRFERDYPGHGGRRR | failed
9 | MNERPATIEELICAAEARLRADPTQVKTVIEDLAHLEAQGYPAGPATVLIFDGNARVMSGDFAGARPVLEKGLALSTELEEPTLQVRALTGLAVLHVGTGAYGQALEYHMQSMQLARTLENGGLLSRSLIYVGSLYAALRNFEQAQAYHREAVEHAASAGRSTFMARLALATDEAQLGHLEEALQQRRELLVEARQTASRAEEAFVLADLAANLLQLDQRAEARQLASEALKRAEALGLQLEKGQALIILASLDIREGQFESAHQALHEVLEIGQRLASIQLLIPVHEELSRLFEQQGDFAGALRHTRVHYELKSSELTRLAERRSQVLEAELKVELLRQQAEEKERQNLALVAINEHLRETQKRLQYAATHDALTGLLVRTALEETVEDDLLLSPERRRALFMIDVDHFKQINDALGHHVGDRFLQELARRLRGALRPTDIVARQGGDEFTIYLRELDSPEEAVALGQQLLRDIAAPVQVEGHLLNVTVSIGIAVYPDDGRDVMTLEKHADLALYRAKEQRHQVCRFQKPAD | failed
10 | MDELRQKLQYSSFELEAVKAKANEETKLHQEEVKNLLHLLKLARQERDEAKDQLQKLLTIKTNSSITESNSHGSSPVDSFFEPVSSSEFSNFNMVPEPINQVKFKNRQQLVNRNLKKIDPVDALMDEIIKGKALPEKGKLLQTVMESGPLLQTLLVAGPLPRWRNPPPLQQSFRVPPISNSYGCLPATTTTSMLNFRGCSVPRIATGIEVATKRQRFH | failed
11 | TSTFYELFPKTFPKKLPIWTIDQSRLRKEYRQLQAQHHPDMAQQGSEQSSTLNQAYHTLKDPLRRSQYMLKLLRNIDLTQEQTSNEVTTSDPQLLLKVLDIHDELSQMDDEAGVKLLEKQNKERIQDIEAQLGQCYNDKDYAAAVKLTVELKYWYNLAKAFKDWAPGKQLEMNH | not failed
12 | MKKISVKFNQKQIFFGIIGLLLLGIIGIFAYKLNEYFSEPVIKAKSINLDASPSPKSKIIERLKKDQKIKVLKKNNNTDWWQVEIGSQKGWVASWLIQKKNYNAKNAGRLAEATIVLDPGHGGVDSGTQASNGAMEKTYTLRTALKVYKLLKAKNVHVIMTRHTNKTVALASRPALSNRVKANIYISFHFNSAGEQNAAEGYEVFKYNHNANSFASTIDKQFNNLPLYNRGVSFGNFEVLRDNKRPAILVEMGFMDSDYDFSYIQKSSYQQKVANDVTKSLTSYFN | failed
13 | APEWTEEDLSQLTRSMVKFPGGTPGRWEKIAHELGRSVTDVTTKAKQLKDSVTCSPGMV | not failed
14 | MHLLVVEDDDIVRMLMVEVLDDLGYKVIEAEDATAALRVLEDPSQALALMMTDVGLPDMRGEELAGKARELRPLLPVLFASGYADSFNVPEGMHLIGKPFSIDQLRDTVVGILGTP | failed
15 | MHPNIATLLSANLGESRTRHLLSLVSVPDGLPSDAEGRATRAEIAQALNMVLFAGILDRVPTGRAYTDDVAATGGKVVFDHGALRTVKWRDNGALPEGEAAFTRILRPLGYRLNGNYPLDRISMTGRSYAHADAPEGIAQFFVSEFHPERFSDAFREAVGRVTGNSADPLTPRAQTLLWQLDRDGVLTVADGAELIGLLVPCFERQHGVPRLADYETLLRESAEMAWIATEGNAFNHATDRVDDVFGLSEQQKALGRPMKDKVEVSGSGRVKQTAFRADTVRRQFIGAQGETVERDVPGSFYEFITRDRFADAPAASPRVDLGFDAGNAQGIFKMTAAV | not failed
16 | MEVVVVGDAQAMAGRVPTVMHVRCPDRLREGVYRQVLELLTDLSPVVQALPPTAALVELKGALRYHGSEVHRLGEVLRVRTLSRLGVDVRVGIGPSITIAATASAQVPLPGGVLTVAPDDVTDWLAPLPGEALHGLGPRQAGALHEYGIHTVGLLAAVSPETVQRLLGGKAGRLAADRARGRDPRPVVPRALPAAATVRMRFDRHVLDGADVRAALLDLVVQLGRLLRRRGQAARAVSLTLQFAGGGSWEKSRRLPEPSAHDEDLRTMAYRLIDAAGLQRGRLTGLFLKADDLVDADRVAQQISLDQAREARLVAEATVDRVRDKFGPGVIGPAATARRAS | failed
17 | MEKSKKLPFEVDRRSVYKCVQCGTCRSVCPVFDVVGWESANTRGRMLIIKSLIEGRPPSEDVLSSLASCTTCGICAAKCPAGANPPEVVEAARAQLVKCGVTTDAQLEHHHHHH | failed
18 | TSTMGNLQTAINDKSGTLASQNFLDADEQKRNAYNQAVSAAETILNKQTGPNTAKTAVEQALNNVNNAKHALNGTQNLNNAKQAAITAINGASDLNQKQKDALKAQANGAQRVSNAQDVQHNATELNTA | not failed
19 | MSLKARLALFFALSIGLALFFQGALSYVAFKGLLEADLDRSLLFYARALAEGRPSPRGEFAFRLAQGGAETKSPNFPDLPPLAPGRYWKEGWRVWVLEAPGGTLTVARYEPEALLALSRFRLVLFASGAALTLAFALLAGHLAGVALRPLSRLTEVARRVADSQDLSHRVPPEGGGELKTLAEAFNHMLERLEAFLEREKRFTRDAAHELRTPVAAALAQLEAAEGGYLSEGEALQATKEELLRMKRLVEALLVLAREGRVTPVPLDLAALAREEARAFGVPYRGPETLPYEGDPLLLAQALRNLLRNAFLHGEGKGVEVRLSQEGEDLVLEVKDEGPGMPEEALKEAGRPFFRASPKPGEGLGLSVAKKVAEAHGGALVLVPRKPTGLTARLLLPANPRLTGTP | failed
20 | FFSVSNIGLHARAYKDKLFVHTASLRSGNPYKQVDLLVLDAKGETVLQGATDDNGNALLNYTLNAGHVLVSRNGRDISILPFNQPALDLSEFAVAGRENPWFDVFAWSGRDLYRPGEMLRISALLRDRDGKPVKPQPVFLRLKQPDGKTFRETRLQPAEQGYLEFTQKIPSDAPTGRWRVEFRTDPASKEAVQGLAVRVEEFLPERMKLELSSAQPVLRAKAPFTLTADAAYLYGAPAAGNRFTANLAVAVEQHPLDNMPGWFFGDATL | failed
21 | MTFRGPSPPRFGHSMDLPAYAIEAEGLYKTYAGTKTSPEKRALNGIDLKIPRGSIFGLLGPNGAGKSTFINILAGLVRKSSGTVRIWGRDIDQRPRDARAAIGVVPQELAADVFFTPRESLEVQAGFYGVPKSERRTDELLNALGLGDKAGAYVRQLSGGMKRRLMVAKAMVHQPPVLILDEPTAGVDVELRRQLWQYVTSLNELGVTIVLTTHYLEEAQELCDEIAIINRGEVVACEPTAKLLSRMDSRNVVVTPESPVTAAPVLEGFDTKLRSGGAFSVSYRTGQSSVEQVLAAVRASGLHIKDIATEDPDLEDVFVALTYGDPNAADPTKDLEHHHHHH | failed
22 | MMTQQELEKYLWGAATTLRGTIDAGDYKQYIFPLMFFKRICDVYDEEFENALAESDGDLEYAAFAENHHFQVPKGAHWNDVRETTTNIGLALQNAMRAIEKANPDTLEGIFGDASWTNKERLSDAMLTNLIEHYSEQTLNLKNVPDDKLGNAYEYLIKEFADDSGHTAAEFYTNRTVVKLMTMIMAPQPGESVYDPTCGSGGLLLNCALHLKDEGKEYRTLKLYGQEINLLTSAIARMNMFMHGIEEFDIVRGNTLSNPGLLENDELKKFNVILANPPYSIKSWDRKAFESDPYGRNVWGTPPQGCADYAFQQHIQKSLDLGNGRSISLWPHGILFRDAETAMRRKMIEQDQVECVIGLGPNLFYNSPMEACLLITKTNKIESKKDKILFINAVKEVRQDKNIGYLDQVHIDKIFNAYNKFENEDSFAVLVDKQEVLDKKANMAINLYIRPDSLVSSEEACFATAYQEWQQSSGDLKQSMEKLFKELV | not failed
